Assay results: patent CN112646029A

Target: T1, mBDNF (成熟脑源性神经营养因子, mature brain-derived neurotrophic factor) (Helarctos malayanus (Malayan sun bear) (Ursus malayanus)) (UniProt O18753)
T1 sequence: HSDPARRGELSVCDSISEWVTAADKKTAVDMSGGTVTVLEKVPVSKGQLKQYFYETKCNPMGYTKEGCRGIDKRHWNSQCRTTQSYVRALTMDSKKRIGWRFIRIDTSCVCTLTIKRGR
Assay: ELISA; antigen coated on the plate, purified antibody added, secondary antibody, TMB, OD450

B1: 抗mBDNF抗体 (anti-mature brain-derived neurotrophic factor antibody) (antibody, V domains shown)
VH: EVKLEESGGGLVQPGGSMKLSCVASGFTFNNYWMNWVRQSPGKGLEWVAQIRLDSDNYATHYAESVIGRFTISSDDSKSSVYLQMNNLRAEDTGIYYCTAFDYAMDYWGQGTSVTVSS
VL: DIVMTQSHKFMSTSVGDRVSITCKASQDVGSAVAWYQQKPGQSPKLLIYWASTRHTGVPNRFTGSGSGTDFTLTISNVHSEDLADYFCQQYSSYPLTFGSRTKLEIK
**Q.** Which lowest antigen concentration at which the antigen was detected does the source give for B1 here?
**A.** 1.95 ng/mL
